Experimental data from patent US20260242478A1 (published 2026).
Where no end group is shown, it is not given here.

What was measured:
[1] = target: T1, Anti-CD28 Fab (SEQ ID NOs: 696, 697); experiment: phage binding ELISA; biotinylated anti-CD28 Fab on neutravidin plate, bound phage detected with anti-M13-HRP;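 also: clonal phage tested as crude supernatants, given a short incubation in the Fab-captured wells before bound phage were read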
T1 construct: In the phage ELISA the Fab was biotinylated and captured on neutravidin coated plates
T1 sequence (VH, as listed by the source, chain 1 of 2): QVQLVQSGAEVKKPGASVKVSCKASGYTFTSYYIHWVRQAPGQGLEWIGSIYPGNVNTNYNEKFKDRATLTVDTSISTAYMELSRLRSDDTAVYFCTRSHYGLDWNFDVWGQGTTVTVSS
T1 sequence (VL, as listed by the source, chain 2 of 2): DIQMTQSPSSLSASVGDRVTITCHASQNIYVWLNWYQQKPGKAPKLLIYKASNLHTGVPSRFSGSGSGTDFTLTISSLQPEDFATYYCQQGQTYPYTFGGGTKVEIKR
Method: (§1) Clonal phage were harvested as crude supematants and screened via standard ELISAs. […] Prior to the addition of clonal phage, wells were incubated with blocking buffer and CD28 antigen or blocking buffer alone. Without washing or aspirating, clonal phage supematants were then added to the wells and incubated for a short time. Wells were then washed followed by detection of bound phage using a horse radish conjugated anti-M13 antibody. Clonal phage of interest were then sent for sequence analysis.

[2] = target: T1, Anti-CD28 Fab (SEQ ID NOs: 696, 697); experiment: phage binding ELISA on captured anti-CD28 Fab, wells pre-incubated with CD28 antigen as competitor
Method: as §1

[3] = target: T2, Anti-CD28 Fab (SEQ ID NOs: 696, 697); experiment: phage ELISA; captured anti-CD28 Fab pre-incubated with CD28 antigen as competitor, anti-M13-HRP
T2 construct: In the phage ELISA the Fab was biotinylated and captured on neutravidin coated plates
T2 sequence (VH, as listed by the source, chain 1 of 2): as the sequence (VH, as listed by the source, chain 1 of 2) above
T2 sequence (VL, as listed by the source, chain 2 of 2): as the sequence (VL, as listed by the source, chain 2 of 2) above
Method: (§2) Clonal phage were harvested as crude supematants and screened via standard ELISAs. […] Prior to the addition of clonal phage, wells were incubated with blocking buffer and CD28 antigen or blocking buffer alone. Without washing or aspirating, clonal phage supematants were then added to the wells and incubated for a short time. Wells were then washed followed by detection of bound phage using a horse radish conjugated anti-M13 antibody.

[4] = target: T2, Anti-CD28 Fab (SEQ ID NOs: 696, 697); experiment: phage ELISA; biotinylated anti-CD28 Fab on neutravidin plate, clonal phage detected with anti-M13-HRP
Method: as §2

[5] = target: T3, Anti-CD28 Fab (SEQ ID NOs: 696, 697); experiment: phage binding ELISA; biotinylated anti-CD28 Fab on neutravidin plate, bound phage detected with anti-M13 HRP
T3 construct: In the phage ELISA the Fab was biotinylated and captured on neutravidin coated plates
T3 sequence (VH, as listed by the source, chain 1 of 2): as the sequence (VH, as listed by the source, chain 1 of 2) above
T3 sequence (VL, as listed by the source, chain 2 of 2): as the sequence (VL, as listed by the source, chain 2 of 2) above
Method: as §2

[6] = target: T3, Anti-CD28 Fab (SEQ ID NOs: 696, 697); experiment: phage binding ELISA; Fab-coated wells pre-incubated with CD28 antigen as competitor;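 also: clonal phage supernatants added to wells preincubated with CD28 antigen or blocking buffer only, bound phage detected with HRP-conjugated anti-M13 antibody, buffer-only wells as control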
Method: as §2

[7] = target: T4, Anti-CD28 Fab (SEQ ID NOs: 696, 697); experiment: phage binding ELISA on captured anti-CD28 Fab; competitor: CD28 antigen pre-incubated in the well;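 also: clonal phage supernatants added briefly to wells preblocked with or without CD28, bound phage detected through an HRP-linked anti-M13 antibody, wells with blocking buffer alone as comparison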
T4 construct: Biotinylated and captured on neutravidin coated plates in the phage ELISA
T4 sequence (VH, as listed by the source, chain 1 of 2): as the sequence (VH, as listed by the source, chain 1 of 2) above
T4 sequence (VL, as listed by the source, chain 2 of 2): as the sequence (VL, as listed by the source, chain 2 of 2) above
Method: as §1

[8] = target: T4, Anti-CD28 Fab (SEQ ID NOs: 696, 697); experiment: phage binding ELISA; biotinylated anti-CD28 Fab on neutravidin plate, bound phage detected with anti-M13-HRP;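 also: clonal phage tested as crude supernatants, given a short incubation in the Fab-captured wells before bound phage were read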
Method: as §1

B1: Phage-1441 (peptide-92 library clone, SEQ ID NO: 1737) (peptide)
peptide: TCSAGAHYVWPMCF
notes: Tested as clonal phage supernatant; not shown: fused to the pIII filament of the bacteriophage
Anti-CD28 Fab signal (phage binding ELISA) [1]: 1.91
Anti-CD28 Fab signal in the presence of CD28 (phage binding ELISA) [2]: 0.17

B2: Phage-1442 (peptide-92 library clone, SEQ ID NO: 1738) (peptide)
peptide: TCSAGATYIWPMCF
notes: as for B1
Anti-CD28 Fab signal (phage binding ELISA) [1]: 1.9
Anti-CD28 Fab signal in the presence of CD28 (phage binding ELISA) [2]: 0.08

B3: Phage-1443 (peptide-92 library clone, SEQ ID NO: 1739) (peptide)
peptide: TCRAGATYNWPFCL
notes: as for B1
Anti-CD28 Fab signal (phage binding ELISA) [1]: 1.9
Anti-CD28 Fab signal in the presence of CD28 (phage binding ELISA) [2]: 0.07

B4: Phage-1444 (peptide-92 library clone, SEQ ID NO: 1740) (peptide)
peptide: TCSAGATWPWPICL
notes: as for B1
Anti-CD28 Fab signal (phage binding ELISA) [1]: 1.89
Anti-CD28 Fab signal in the presence of CD28 (phage binding ELISA) [2]: 0.08

B5: Phage-1445 (peptide-92 library clone, SEQ ID NO: 1741) (peptide)
peptide: TCAAGASYPWPACL
notes: as for B1
Anti-CD28 Fab signal (phage binding ELISA) [1]: 1.89
Anti-CD28 Fab signal in the presence of CD28 (phage binding ELISA) [2]: 0.09

B6: Phage-1446 peptide (SEQ ID NO: 1742) (peptide)
peptide: SCAAVFSFPWSPCL
notes: tested as crude clonal phage supernatant
Phage binding ELISA, Anti-CD28 Fab signal in the presence of CD28 [3]: 0.08
Phage binding ELISA, Anti-CD28 Fab signal [4]: 1.87

B7: Phage-1447 peptide (SEQ ID NO: 1743) (peptide)
peptide: TCSAGFSYSWPACF
notes: as for B6
Phage binding ELISA, Anti-CD28 Fab signal in the presence of CD28 [3]: 0.07
Phage binding ELISA, Anti-CD28 Fab signal [4]: 1.86

B8: Phage-1448 peptide (SEQ ID NO: 1744) (peptide)
peptide: TCTAGFSYNWPMCF
notes: as for B6
Phage binding ELISA, Anti-CD28 Fab signal in the presence of CD28 [3]: 0.06
Phage binding ELISA, Anti-CD28 Fab signal [4]: 1.85

B9: Phage-1449 peptide (SEQ ID NO: 1745) (peptide)
peptide: TCSAGATYAWPACY
notes: as for B6
Phage binding ELISA, Anti-CD28 Fab signal in the presence of CD28 [3]: 0.14
Phage binding ELISA, Anti-CD28 Fab signal [4]: 1.84

B10: Phage-1450 peptide (SEQ ID NO: 1746) (peptide)
peptide: TCSAGATYSWPQCL
notes: as for B6
Phage binding ELISA, Anti-CD28 Fab signal in the presence of CD28 [3]: 0.07
Phage binding ELISA, Anti-CD28 Fab signal [4]: 1.84

B11: Phage-1451 peptide (SEQ ID NO: 1747) (peptide)
peptide: TCSAGAYYAWPVCL
notes: as for B6
Phage binding ELISA, Anti-CD28 Fab signal in the presence of CD28 [3]: 0.08
Phage binding ELISA, Anti-CD28 Fab signal [4]: 1.84

B12: Phage-1452 peptide (SEQ ID NO: 1748) (peptide)
peptide: LCRAGAMWPWPTCL
notes: as for B6
Phage binding ELISA, Anti-CD28 Fab signal in the presence of CD28 [3]: 0.06
Phage binding ELISA, Anti-CD28 Fab signal [4]: 1.83

B13: Phage-1453 peptide (SEQ ID NO: 1749) (peptide)
peptide: TCSAGATFHWPQCF
notes: as for B6
Phage binding ELISA, Anti-CD28 Fab signal in the presence of CD28 [3]: 0.08
Phage binding ELISA, Anti-CD28 Fab signal [4]: 1.83

B14: Phage-1454 peptide (SEQ ID NO: 1750) (peptide)
peptide: TCSAGAHYEWPYCL
notes: as for B6
Phage binding ELISA, Anti-CD28 Fab signal in the presence of CD28 [3]: 0.11
Phage binding ELISA, Anti-CD28 Fab signal [4]: 1.82

B15: Phage-1455 peptide (SEQ ID NO: 1751) (peptide)
peptide: QCAAGASYPWPVCL
notes: as for B6
Phage binding ELISA, Anti-CD28 Fab signal in the presence of CD28 [3]: 0.07
Phage binding ELISA, Anti-CD28 Fab signal [4]: 1.82

B16: Phage-1456 peptide (SEQ ID NO: 1752) (peptide)
peptide: LCKPGVPYQWPTCF
notes: as for B6
Phage binding ELISA, Anti-CD28 Fab signal in the presence of CD28 [3]: 0.05
Phage binding ELISA, Anti-CD28 Fab signal [4]: 1.82

B17: Phage-1457 peptide (SEQ ID NO: 1753) (peptide)
peptide: TCAAGAMWQWPVCL
notes: as for B6
Phage binding ELISA, Anti-CD28 Fab signal in the presence of CD28 [3]: 0.06
Phage binding ELISA, Anti-CD28 Fab signal [4]: 1.81

B18: Phage-1458 peptide (SEQ ID NO: 1754) (peptide)
peptide: PCSAGATYAWLYCV
notes: as for B6
Phage binding ELISA, Anti-CD28 Fab signal in the presence of CD28 [3]: 0.06
Phage binding ELISA, Anti-CD28 Fab signal [4]: 1.81

B19: Phage-1459 peptide (SEQ ID NO: 1755) (peptide)
peptide: SCAAGAMWPWPVCV
notes: as for B6
Phage binding ELISA, Anti-CD28 Fab signal in the presence of CD28 [3]: 0.06
Phage binding ELISA, Anti-CD28 Fab signal [4]: 1.8

B20: Phage-1460 peptide (SEQ ID NO: 1756) (peptide)
peptide: SCAAGAAYPWPACL
notes: as for B6
Phage binding ELISA, Anti-CD28 Fab signal in the presence of CD28 [3]: 0.06
Phage binding ELISA, Anti-CD28 Fab signal [4]: 1.8

B21: Phage-1475 (peptide, not shown: large carriers)
peptide: MCAAGAMYAWPTCL
modifications: cysteine pairing not given here; also: fused to phage pIII protein, pIII and linker not given here
notes: Clonal phage of the Peptide-92 optimisation library, tested as crude phage supernatant
Anti-CD28 Fab (SEQ ID NOs: 696, 697) signal [5]: 1.75
Anti-CD28 Fab signal in the presence of CD28 [6]: 0.09

B22: Phage-1476 (peptide, not shown: large carriers)
peptide: TCAAGASFPWPWCL
modifications: cysteine pairing not given here; also: fused to phage pIII protein, pIII and linker not given here
notes: as for B21
Anti-CD28 Fab (SEQ ID NOs: 696, 697) signal [5]: 1.75
Anti-CD28 Fab signal in the presence of CD28 [6]: 0.06

B23: Phage-1477 (peptide, not shown: large carriers)
peptide: SCAAVFPYPWPPCF
modifications: cysteine pairing not given here; also: fused to phage pIII protein, pIII and linker not given here
notes: as for B21
Anti-CD28 Fab (SEQ ID NOs: 696, 697) signal [5]: 1.75
Anti-CD28 Fab signal in the presence of CD28 [6]: 0.06

B24: Phage-1478 (peptide, not shown: large carriers)
peptide: TCSAGAMYPWPWCV
modifications: cysteine pairing not given here; also: fused to phage pIII protein, pIII and linker not given here
notes: as for B21
Anti-CD28 Fab (SEQ ID NOs: 696, 697) signal [5]: 1.75
Anti-CD28 Fab signal in the presence of CD28 [6]: 0.08

B25: Phage-1479 (peptide, not shown: large carriers)
peptide: WCAAVFSYSWPLCL
modifications: cysteine pairing not given here; also: displayed as fusion to phage pIII, pIII and linker not given here
notes: as for B21
Anti-CD28 Fab (SEQ ID NOs: 696, 697) signal [5]: 1.75
Anti-CD28 Fab signal in the presence of CD28 [6]: 0.06

B26: Phage-1480 (peptide, not shown: large carriers)
peptide: GCAAGFHYPWPLCL
modifications: cysteine pairing not given here; also: displayed as fusion to phage pIII, pIII and linker not given here
notes: as for B21
Anti-CD28 Fab (SEQ ID NOs: 696, 697) signal [5]: 1.74
Anti-CD28 Fab signal in the presence of CD28 [6]: 0.08

B27: Phage-1481 (peptide, not shown: large carriers)
peptide: LCEEFFHYSWPVCL
modifications: cysteine pairing not given here; also: displayed as fusion to phage pIII, pIII and linker not given here
notes: as for B21
Anti-CD28 Fab (SEQ ID NOs: 696, 697) signal [5]: 1.74
Anti-CD28 Fab signal in the presence of CD28 [6]: 0.06

B28: Phage-1482 (peptide, not shown: large carriers)
peptide: TCAAGAAWPWPHCL
modifications: cysteine pairing not given here; also: displayed as fusion to phage pIII, pIII and linker not given here
notes: as for B21
Anti-CD28 Fab (SEQ ID NOs: 696, 697) signal [5]: 1.73
Anti-CD28 Fab signal in the presence of CD28 [6]: 0.06

B29: Phage-1483 (peptide, not shown: large carriers)
peptide: QCAAGAMWTWPACF
notes: as for B21
Anti-CD28 Fab (SEQ ID NOs: 696, 697) signal [5]: 1.73
Anti-CD28 Fab signal in the presence of CD28 [6]: 0.07

B30: Phage-1484 (peptide, not shown: large carriers)
peptide: MCSAGATYPWPMCL
notes: as for B21
Anti-CD28 Fab (SEQ ID NOs: 696, 697) signal [5]: 1.73
Anti-CD28 Fab signal in the presence of CD28 [6]: 0.06

B31: Phage-1485 (peptide, not shown: large carriers)
peptide: TCAAGATYPWPSCL
notes: as for B21
Anti-CD28 Fab (SEQ ID NOs: 696, 697) signal [5]: 1.73
Anti-CD28 Fab signal in the presence of CD28 [6]: 0.05

B32: Phage-1486 (peptide, not shown: large carriers)
peptide: TCAAGAVWGWPLCF
notes: as for B21
Anti-CD28 Fab (SEQ ID NOs: 696, 697) signal [5]: 1.73
Anti-CD28 Fab signal in the presence of CD28 [6]: 0.06

B33: Phage-1487 (peptide, not shown: large carriers)
peptide: TCAAGAHYAWPECF
notes: as for B21
Anti-CD28 Fab (SEQ ID NOs: 696, 697) signal [5]: 1.72
Anti-CD28 Fab signal in the presence of CD28 [6]: 0.06

B34: Phage-1488 (peptide, not shown: large carriers)
peptide: RCRAGFSYNWPYCM
notes: as for B21
Anti-CD28 Fab (SEQ ID NOs: 696, 697) signal [5]: 1.72
Anti-CD28 Fab signal in the presence of CD28 [6]: 0.06

B35: Phage-1489 (peptide, not shown: large carriers)
peptide: WCAAGATWPWPLCI
notes: as for B21
Anti-CD28 Fab (SEQ ID NOs: 696, 697) signal [5]: 1.7
Anti-CD28 Fab signal in the presence of CD28 [6]: 0.17

B36: Phage-1532 (peptide)
peptide: SCSAGAAWPWPWCL
notes: tested as crude phage supernatant
Anti-CD28 Fab signal in the presence of CD28 [7]: 0.08
Anti-CD28 Fab (SEQ ID NOs: 696, 697) signal [8]: 1.55

B37: Phage-1533 (peptide)
peptide: LCAEGFDYSWPMCL
notes: as for B36
Anti-CD28 Fab signal in the presence of CD28 [7]: 0.08
Anti-CD28 Fab (SEQ ID NOs: 696, 697) signal [8]: 1.55

B38: Phage-1534 (peptide)
peptide: TCSAGATYSWPFCF
notes: as for B36
Anti-CD28 Fab signal in the presence of CD28 [7]: 0.07
Anti-CD28 Fab (SEQ ID NOs: 696, 697) signal [8]: 1.55

B39: Phage-1535 (peptide)
peptide: SCKAGAPYYWPGCF
notes: as for B36
Anti-CD28 Fab signal in the presence of CD28 [7]: 0.08
Anti-CD28 Fab (SEQ ID NOs: 696, 697) signal [8]: 1.54

B40: Phage-1536 (peptide)
peptide: TCSAVFSYTWSNCF
notes: as for B36
Anti-CD28 Fab signal in the presence of CD28 [7]: 0.06
Anti-CD28 Fab (SEQ ID NOs: 696, 697) signal [8]: 1.54
